The values that follow come from US20150315569A1, “METHOD FOR SCREENING A NUCLEIC ACID-PROGRAMMED SMALL MOLECULE LIBRARY” (The Board of Trustees of the Leland Stanford Junior …, priority 2014, published 2015).

Data set [1] has as its target T1, protein kinase A (Mus musculus, UniProt P05132).
T1 construct: purchased New England Biolabs P6000L
The experiment in a line: Selection for protein kinase A substrates from the DNA-programmed peptide library; gene/peptide enrichment by Illumina sequencing. The format is biochemical, murine. The conditions noted are these: for LTFE: In (total fold enrichment) after four rounds: after four rounds of PKA substrate selection, kinase-treated vs control population; for Rank: position on list of peptides ranked by fold enrichment: calculated by summing reads over the 1296 genes encoding each peptide, peptide-DNA conjugates. On the procedure:
Programmed library synthesis was carried out by a series of DNA-directed library splitting steps followed by chemical coupling steps. For the splitting steps, the ssDNA library was hybridized to an anticodon array overnight at 37° C. using a mesofluidic hybridization pump (see, e.g., Weisinger et al. (2012) PLoS ONE, 7, e28056). The anticodon array with bound DNA was then mounted into a plate adapter device which uses rubber gaskets to form an isolated liquid channel above and below each array feature. The adapter device was placed on top of a 384-well polypropylene filterplate loaded with 5 μl aliquots of DEAE sepharose resin. DNA was eluted from each feature of the anticodon array onto the DEAE resin in the corresponding well of the filterplate by application of a denaturing buffer (10 mM NaOH with 1 mM EDTA and 0.005% Triton X-100) followed by gentle centrifugation of the stack (140×g for 1 minute). The DEAE resin in the filter plate was then washed three times with 85 μl H2O and three times with 85 μl dry methanol. Peptide couplings were performed using EDC and HOAt in methanol and DMF (see, e.g., Halpin et al., (2004) PLoS Biology, 2, E174). Following the synthetic steps, the filterplate was placed on top of a 384-well polypropylene microtiter plate, and DNA was eluted from the DEAE resin by application of a high salt buffer (1.5 M NaCl, 50 mM NaOH, 1 mM EDTA, and 0.005% Triton X-100) followed by gentle centrifugation. The eluted DNA was pooled, concentrated and buffer exchanged into hybridization buffer using a centrifugal filter device with a 10,000 Da molecular weight cut-off (GE Healthcare). BSA and tRNA were added to 0.5 mg/ml each. The sample was diluted to 3 ml with hybridization buffer and applied to another anticodon array. Following the final step of the chemical synthesis, the eluted DNA was split by hybridization for 3 hours at 37° C. to a pair of anticodon columns derivatized with the VE001 and VE002 anticodon sequences. The two halves of the library were concentrated with n-butanol extractions, precipitated with isopropanol, and subjected to kinase-substrate/mock selections respectively.
Translated libraries were incubated in PKA buffer (NEB) overnight at 30° C. with 10,000 units of protein kinase A and 1 mM ATPγS. For the selection between the third and fourth generations, the incubation was shortened to 1 hour at 30° C. Mock selections were performed identically, with the enzyme replaced by a 50% glycerol solution. After incubation, the crude reactions were diluted 1.5-fold and adjusted to 100 mM NaOAc pH 5.2 and 25% dimethyl formamide. EZ-Link iodoacetyl-LC-biotin (Pierce Thermo Fisher Scientific, catalog #21333) was added to 600 μM. After 3 hours in the dark at 25° C., the enzyme-treated library was cleaned up by extraction with phenol: chloroform and n-butanol, and then precipitation with isopropanol. The library was resuspended in 27.5 μl bind buffer (10 mM Tris pH 7.4, 1 mM EDTA, 1 M NaCl), and 1.25 mg/ml tRNA and 0.25 mg/ml BSA were added. The library was then incubated with 15 μl of μMACS streptavidin microbeads (MiltenyiBiotec, 130-074-101) overnight at room temperature. The microbeads were purified and washed over MACS columns according to the manufacturer's instructions, and the purification process was repeated a second time. DNA was amplified directly off of the streptavidin beads by PCR.
25 pmol of amplified DNA was used as a template in a PCR reaction that appended Illumina adaptor sequences. The PCR product was quantified on an Agilent 2100 Bioanalyzer, and a 10 nM solution was submitted to the Stanford Functional Genomics Facility for sequencing using custom primers. Paired-end 150-bp reads were obtained on a MiSeqIllumina Sequencer.
The sequencing data were processed using scripts written in either AWK or MATLAB. […]

For data set [2], the system named is T2, RRASL (SEQ ID NO: 3).
T2 sequence: RRASL

Data set [3] has as its system T3, Kemptide heptapeptide LRRASLG (SEQ ID NO: 10).
T3 sequence: LRRASLG

Data set [4] concerns T4, RRSFV (SEQ ID NO: 2).
T4 sequence: RRSFV

For data set [5], the system named is T5, RRMS (SEQ ID NO: 9).
T5 sequence: RRMS

Data set [6] has as its system T6, RRMTV (SEQ ID NO: 6).
T6 sequence: RRMTV

Data set [7] has as its system T7, RRFSV (SEQ ID NO: 4).
T7 sequence: RRFSV

Data set [8] concerns T8, RMSF (SEQ ID NO: 7).
T8 sequence: RMSF

The test system of data set [9] is T9, RRSF (SEQ ID NO: 8).
T9 sequence: RRSF

The test system of data set [10] is T10, RRMSV (SEQ ID NO: 5).
T10 sequence: RRMSV

Turning to RMSF, in [1], the “LTFE: In (total fold enrichment) after four rounds” value (“LTFE: In (total fold enrichment)” below) was 7.6. Moreover, the “Rank: position on list of peptides ranked by fold enrichment” value (from here on “Rank: position … by fold enrichment”) in data set [1] (fourth generation) is given as 147.
As to RRASL (sythetic peptide), in data set [1], the “LTFE: In (total fold enrichment)” value was found to be 10.6. Besides, in data set [1] (fourth generation), the “Rank: position … by fold enrichment” value is 20.
As to RRFSV, the “LTFE: In (total fold enrichment)” value in [1] amounted to 10.2. The “Rank: position … by fold enrichment” value in data set [1] (fourth generation) was 33.
In the same order, the values of RRMS are 3.0 and 1846.
The matching figures for RRMSV: 9.5 and 51.
In the same order, the values of RRMTV are 8.4 and 95.
Turning to RRSF, the “LTFE: In (total fold enrichment)” value in data set [1] came out at 6.3. Besides, the “Rank: position … by fold enrichment” value in data set [1] (fourth generation) is reported as 253.
As for RRSFL, the “peptide enrichment in the fourth generation library (result in words)” value in data set [1] (reads of the 6^4 (1296) genes per peptide summed) is reported as “most highly enriched peptide”.
As for RRSFV, the “LTFE: In (total fold enrichment)” value in [1] is recorded as 11.1. Moreover, in data set [1] (fourth generation), the “Rank: position … by fold enrichment” value is recorded as 7. Also, the “median enrichment of the genes encoding the peptide” value in [1] (fourth generation, single genes (one codon per amino acid model)) was 175,000 fold.
Regarding “catalytic subunit of murine cAMP-activated protein kinase A”, the Rel. kcat/Km (relative to Kemptide) in [2] is 0.27; in [3] it was 1; in data set [4] it was 0.16; in data set [5] it was 0.028; in [6] it was 0.031; in [7] it was 4.1. The Rel. kcat/Km (relative to Kemptide) in [8] was found to be 0.0028; in data set [9], 0.05; in data set [10], 2.2.
